Reference: US20230174599A1 (University of California, published 2023)
Where “and” joins values, the source holds several entries; their conditions need not be identical. Equal values may be shown once. Read-outs that look alike come from different tables or passages of the source.

Key:
[1] = biological target: T1, SARS-CoV-2 Spike RBD (SARS-CoV-2, UniProt P0DTC2 319-541)
T1 construct: domain: RBD; also called single RBDs; Spike RBD proteins

[2] = biological target: T1, SARS-CoV-2 Spike RBD; remark: listed apart in the source
[3] = biological target: T1, SARS-CoV-2 Spike RBD
[4] = biological target: T1, SARS-CoV-2 Spike RBD; remark: listed apart in the source

B1: RiAFP-HTH.1 (designed binder)
chain: ASRAEARGEAMAEGHSRGSATSHANATGHADARSMSEGNAEAYTEAKGDAMATSEASGEARAQTNADGSAHSSSRTHGRADSTASAKTNYNRECGEEQAKTFLDKFNHEAEDLFYQSSLASWNYNTNITEENVQNRNNAGDKRSAFLKEQSTLAQMYGCGSGSAMAEGTSDGDAKSYASADGNASAKSMSTGHADATTNAHGTAMADSNAIGEARAETRAEGRAESSSDTDGS
notes: also called mBSP-HTH.1; RiAFP-HTH.1 construct
[1]
  Kd: 0.7 to 1.6 nM

B2: RiAFP-HTH.2 (designed binder)
chain: ASRAEARGEAMAEGHSRGSATSHANATGHADARSMSEGNAEAYTEAKGDAMATSEASGEARAQTNADGSAHSSSRTHGRADSTASAKGGKALNDKEAKNKAILNLEEIEEQAKTFLDKFNHEAEDLFYQSSLASWNYNTNITEENVQNMNNAGDKWSAFLKEQSTLAQMYQNEIKRKSEKQEDLKKEMLELEKLGGAMAEGTSDGDAKSYASADGNASAKSMSTGHADATTNAHGTAMADSNAIGEARAETRAEGRAESSSDTDGS
notes: also called mBSP-HTH.2; RiAFP-.2
[2]
  Kd: 2.1 nM
[1]
  Kd: 2.1 to 28 nM
[3]
  Kd: ≥ 41 nM and ≤ 84 nM and 28 nM

B3: polymeric RiAFP-HTH.2 fixed to nitrocellulose (designed binder)
chain: ASRAEARGEAMAEGHSRGSATSHANATGHADARSMSEGNAEAYTEAKGDAMATSEASGEARAQTNADGSAHSSSRTHGRADSTASAKGGKALNDKEAKNKAILNLEEIEEQAKTFLDKFNHEAEDLFYQSSLASWNYNTNITEENVQNMNNAGDKWSAFLKEQSTLAQMYQNEIKRKSEKQEDLKKEMLELEKLGGAMAEGTSDGDAKSYASADGNASAKSMSTGHADATTNAHGTAMADSNAIGEARAETRAEGRAESSSDTDGS
[4]
  Kd: 0.006 to 0.009 nM and ≤ 0.01 nM
  koff: 6e-07 to 9e-07 s⁻¹
